{"source": "patent US20180313836A1", "target": "Nrp1 immobilized on the biolayer interferometry biosensor (Homo sapiens (Human)) (UniProt O14786)", "test": "biolayer interferometry, Nrp1 immobilized on the biosensor"}
{"substance": "human glycyl-tRNA synthetase L129P (L129P-GlyRS^CMT2D) (from UniProt P41250 55-739) (enzyme)", "values": [{"measurement": "Kd", "value": 29.8, "unit": "nM"}]}
{"substance": "human glycyl-tRNA synthetase P234KY (P234KY-GlyRS^CMT2D) (from UniProt P41250 37-739) (enzyme)", "values": [{"measurement": "Kd", "value": 209, "unit": "nM"}]}
